Measured values taken from publication PMC9751095, “The mitochondrial chaperone TRAP1 regulates F-ATP synthase channel formation” (Cell Death and Differentiation, 2022).

Target: T1, recombinant mature human OSCP (human, UniProt P48047 24-213)
T1 construct: human F-ATP synthase subunit OSCP, mature protein
T1 sequence (looked up): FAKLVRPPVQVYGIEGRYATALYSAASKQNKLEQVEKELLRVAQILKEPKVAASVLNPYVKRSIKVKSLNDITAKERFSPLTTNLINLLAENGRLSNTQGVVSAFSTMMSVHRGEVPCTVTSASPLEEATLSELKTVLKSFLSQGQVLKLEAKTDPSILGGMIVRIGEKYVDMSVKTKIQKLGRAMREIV
Experiment: SPR; Biacore T100, CM5 chip, CyPD immobilized by amine coupling (800-1200 RU); OSCP injected at increasing concentrations; Langmuir interaction model
Conditions: both partners purified

B1: purified recombinant human cyclophilin D (enzyme)
chain: not shown
notes: human cyclophilin D, cDNA from a human placenta library; called 'recombinant mature human' for the SPR; also called CyPD; CypD; source: E. coli BL21(DE3)pLysS (plasmid pSUMO-Cyclophilin D), purified
B1: binds.
